From US20240018502A1
Residue numbers refer to the chain shown, from its start. Names and notes keep the numbering of the source. Each block holds one binder with its values, some of them ahead of it.

Molecular target: plasma purified human complement protein C3 (human) (UniProt P01024)
Test: cell-based or functional assay

plasma purified human complement protein C3 (human), sequence (P01024 23-667, chain 1 of 2): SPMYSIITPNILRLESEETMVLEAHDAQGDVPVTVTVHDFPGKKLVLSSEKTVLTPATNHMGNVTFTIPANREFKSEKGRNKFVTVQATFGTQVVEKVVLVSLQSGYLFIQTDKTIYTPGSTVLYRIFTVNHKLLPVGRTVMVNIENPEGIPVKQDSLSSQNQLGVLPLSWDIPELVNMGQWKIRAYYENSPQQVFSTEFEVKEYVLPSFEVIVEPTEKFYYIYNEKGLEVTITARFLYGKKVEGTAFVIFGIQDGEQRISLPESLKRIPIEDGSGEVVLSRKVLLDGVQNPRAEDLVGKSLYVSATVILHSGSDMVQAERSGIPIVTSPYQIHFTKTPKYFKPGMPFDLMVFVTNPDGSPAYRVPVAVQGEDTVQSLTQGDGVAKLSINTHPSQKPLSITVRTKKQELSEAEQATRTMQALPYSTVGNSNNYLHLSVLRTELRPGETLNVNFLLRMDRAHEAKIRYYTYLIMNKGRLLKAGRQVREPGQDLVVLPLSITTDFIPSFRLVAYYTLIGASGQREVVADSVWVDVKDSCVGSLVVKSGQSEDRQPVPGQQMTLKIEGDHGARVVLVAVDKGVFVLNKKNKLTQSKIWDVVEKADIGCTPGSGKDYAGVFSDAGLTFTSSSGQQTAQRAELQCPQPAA
plasma purified human complement protein C3 (human), sequence (P01024 672-1663, chain 2 of 2): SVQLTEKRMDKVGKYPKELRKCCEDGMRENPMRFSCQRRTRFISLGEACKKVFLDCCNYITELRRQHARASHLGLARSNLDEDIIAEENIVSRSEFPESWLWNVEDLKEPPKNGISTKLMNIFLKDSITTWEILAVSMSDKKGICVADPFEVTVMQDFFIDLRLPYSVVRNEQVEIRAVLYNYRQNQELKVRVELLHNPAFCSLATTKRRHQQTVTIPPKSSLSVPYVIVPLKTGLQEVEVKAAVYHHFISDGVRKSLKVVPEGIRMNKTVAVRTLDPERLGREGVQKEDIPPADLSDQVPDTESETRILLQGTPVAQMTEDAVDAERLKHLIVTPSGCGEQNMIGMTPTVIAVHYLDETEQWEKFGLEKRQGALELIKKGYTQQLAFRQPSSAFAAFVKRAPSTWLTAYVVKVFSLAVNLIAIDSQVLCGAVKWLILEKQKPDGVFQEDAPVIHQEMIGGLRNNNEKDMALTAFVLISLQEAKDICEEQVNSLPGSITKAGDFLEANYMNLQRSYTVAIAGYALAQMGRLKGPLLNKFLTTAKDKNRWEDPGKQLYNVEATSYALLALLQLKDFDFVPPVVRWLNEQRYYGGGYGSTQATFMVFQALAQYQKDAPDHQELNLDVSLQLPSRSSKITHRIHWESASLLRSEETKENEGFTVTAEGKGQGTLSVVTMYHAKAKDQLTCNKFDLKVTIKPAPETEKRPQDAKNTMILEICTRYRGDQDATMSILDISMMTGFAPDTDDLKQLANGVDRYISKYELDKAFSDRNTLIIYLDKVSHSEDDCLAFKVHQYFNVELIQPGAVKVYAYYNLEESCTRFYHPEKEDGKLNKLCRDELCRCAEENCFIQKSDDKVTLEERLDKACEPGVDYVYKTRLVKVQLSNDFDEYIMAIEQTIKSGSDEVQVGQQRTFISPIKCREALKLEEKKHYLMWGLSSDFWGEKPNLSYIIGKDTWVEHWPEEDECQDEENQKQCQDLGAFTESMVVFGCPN

EC50 hC3 cleavage: 20.6 nM
B1: MTSP-1 protease domain Q38H/I41S/D60bT/F60eK/Y60gF/D96M/F97N/T98G/F99L/C122S/G151N/Q175L/Q192D (enzyme)
chain: VVGGTDADEGEWPWQVSLHALGHGHSCGASLISPNWLVSAAHCYIDTRGKRFSDPTQWTAFLGLHDQSQRSAPGVQERRLKRIISHPFFNMNGLDYDIALLELEKPAEYSSMVRPISLPDASHVFPAGKAIWVTGWGHTQYGGTNALILQKGEIRVINQTTCENLLPQLITPRMMCVGFLSGGVDSCDGDSGGPLSSVEADGRIFQAGVVSWGDGCAQRNKPGVYTRLPLFRDWIKENTGV

EC50 of hC3 cleavage: 2.87 nM
B2: MTSP-1 Q38H/I41A/D60bV/F60eR/Y60gW/D96I/F97N/T98G/F99L/C122S/G151N/Q175L/Q192D (enzyme)
chain: B1 chain with S26A, T47V, K50R, F52W, M91I

EC50 hC3 cleavage: 16.9 nM
B3: MTSP-1 protease domain Q38H/I41A/D60bV/F60eR/Y60gW/D96F/F97E/ins97aT/T98G/F99M/C122S/G151N/Q175L/Q192G (enzyme)
chain: VVGGTDADEGEWPWQVSLHALGHGHACGASLISPNWLVSAAHCYIDVRGRRWSDPTQWTAFLGLHDQSQRSAPGVQERRLKRIISHPFFNFETGMDYDIALLELEKPAEYSSMVRPISLPDASHVFPAGKAIWVTGWGHTQYGGTNALILQKGEIRVINQTTCENLLPQLITPRMMCVGFLSGGVDSCGGDSGGPLSSVEADGRIFQAGVVSWGDGCAQRNKPGVYTRLPLFRDWIKENTGV

EC50 hC3 cleavage: 4.9 nM
B4: MTSP-1 protease domain Q38H/I41A/D60bV/F60eR/Y60gW/D96W/F97D/ins97aT/T98G/F99L/C122S/G151N/Q175L/Q192G (enzyme)
chain: B3 chain with F91W, E92D, M95L

EC50 hC3 cleavage: 3.14 nM
B5: MTSP-1 protease domain Q38H/I41A/D60bV/F60eR/Y60gW/D96F/F97S/ins97aH/T98G/F99L/C122S/G151N/Q175L/Q192G (enzyme)
chain: B3 chain with E92S, T93H, M95L

EC50 hC3 cleavage: 24.5 nM
B6: MTSP-1 protease domain Q38H/I41A/D60bT/F60eK/Y60gF/F97T/ins97aE/T98G/F99L/C122S/H143R/G151N/Q175L/Q192V (enzyme)
chain: B3 chain with V47T, R50K, W52F, F91D, E92T, T93E, M95L, H139R, G189V

EC50 hC3 cleavage: 5.28 nM
B7: MTSP-1 protease domain Q38H/I41A/D60bV/F60eR/Y60gW/D96W/F97D/ins97aD/T98G/F99L/C122S/G151N/Q175L/Q192G (enzyme)
chain: B3 chain with F91W, E92D, T93D, M95L

EC50 hC3 cleavage: 7.16 nM
B8: MTSP-1 protease domain Q38H/I41A/D60bV/F60eR/Y60gW/D96F/F97Y/ins97aE/T98G/F99M/C122S/G151N/Q175L/Q192R (enzyme)
chain: B3 chain with E92Y, T93E, G189R

EC50 of hC3 cleavage: 6.68 nM
B9: MTSP-1 Q38H/I41S/D60bT/F60eS/Y60gW/F97D/ins97aV/T98P/F99L/C122S/G151H/Q175L/Q192E (enzyme)
chain: B3 chain with A26S, V47T, R50S, F91D, E92D, T93V, G94P, M95L, N146H, G189E

EC50 hC3 cleavage: 5.17 nM
B10: MTSP-1 protease domain Q38H/I41S/D60bT/F60eS/Y60gW/D96F/F97S/ins97aD/T98G/F99L/C122S/G151H/Q175L/Q192D (enzyme)
chain: B3 chain with A26S, V47T, R50S, E92S, T93D, M95L, N146H, G189D

EC50 hC3 cleavage: 3.76 nM
B11: MTSP-1 protease domain Q38H/I41A/D60bV/F60eR/Y60gW/D96F/F97Y/ins97aN/T98G/F99M/C122S/G151N/Q175L/Q192G (enzyme)
chain: B3 chain with E92Y, T93N

EC50 hC3 cleavage: 21.3 nM
B12: MTSP-1 protease domain Q38H/I41A/D60bV/F60eR/Y60gW/D96F/F97E/ins97aS/T98G/F99M/C122S/G151N/Q175L/Q192G (enzyme)
chain: B3 chain with T93S

EC50 hC3 cleavage: 5.71 nM
B13: MTSP-1 protease domain Q38H/I41S/D60bT/F60eS/Y60gW/D96Y/F97R/ins97aD/T98G/F99L/C122S/G151H/Q175L/Q192D (enzyme)
chain: B3 chain with A26S, V47T, R50S, F91Y, E92R, T93D, M95L, N146H, G189D

EC50 hC3 cleavage: 3.13 nM
B14: MTSP-1 protease domain Q38H/I41S/D60bT/F60eS/Y60gW/D96F/F97Y/ins97aD/T98G/F99L/C122S/G151H/Q175L/Q192D (enzyme)
chain: B3 chain with A26S, V47T, R50S, E92Y, T93D, M95L, N146H, G189D

EC50 hC3 cleavage: 4.53 nM
B15: MTSP-1 protease domain Q38H/I41S/D60bT/F60eS/Y60gW/D96Y/F97N/ins97aE/T98S/F99L/C122S/G151H/Q175L/Q192D (enzyme)
chain: B3 chain with A26S, V47T, R50S, F91Y, E92N, T93E, G94S, M95L, N146H, G189D
